Variants at the floor of the assay were thinned out.
B1: TPR 5TU (parent)
chain: GGAUCUUCUCGAUCUAACAAAAAAGACAAAUCUGCCACAAAGCUUGAGAGCAUCUUCGGAUGCAGAGGCGGCAGCCUUCGGUGGCGCGAUAGCGCCAACGUUCUCAACUAUGACACGCAAAACGCGUGCUCCGUUGAAUGGAGUUUAUCAUG

Variants of: B1
Assay: polymerase ribozyme fitness, log enrichment relative to wild type (log ratio); higher = more active; in vitro selection for triplet polymerase activity
In short: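 Fitness compares each genotype's enrichment to that of the wild type on a logarithmic scale, averaging replicates with inverse-variance weights. The logarithm is base 2. Enrichment came from Illumina sequencing of input and output libraries after one triplicate round of in vitro selection, which included frozen incubation at −7 °C, of PCR-built, transcribed mutant libraries of each subunit of a heterodimeric triplet polymerase ribozyme. Only genotypes with ≥10 input reads and ≥1 read per output were kept.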

U44G U61C and U45A G46A U55C A66G U77G U82A C103G U135C U145C cannot be ordered by “polymerase ribozyme fitness (log ratio)” value: at most -4.2 for the first, at most -4.2 for the second.

Compared with U45A U77A C87U U90G G92C G126A A138G, C43U U61G A64C U77G C85U A110U C116G is higher in “polymerase ribozyme fitness (log ratio)” value: at most -4.2 for the first, -4.02 for the second.

U44A U61G A66C A91U C132U G141C and C43G G83U A97U U104C C116U A137C cannot be ordered by “polymerase ribozyme fitness (log ratio)” value: at most -4.2 for the first, at most -4.2 for the second.

U45A C99A and U44A G50U G59A C85A C99G G126U cannot be ordered by “polymerase ribozyme fitness (log ratio)” value: at most -4.2 for the first, at most -4.2 for the second.

G42U U45A C95U C149A and U45A G65A G86U cannot be ordered by “polymerase ribozyme fitness (log ratio)” value: at most -4.2 for the first, at most -4.2 for the second.

Going from U44G G67U A91U A115U A120C to G42U C108U C125U A138U U148A, the “polymerase ribozyme fitness (log ratio)” value rises from at most -4.2 to -4.13.

U45G A47G C54U C93G and C43A A52C G94A cannot be ordered by “polymerase ribozyme fitness (log ratio)” value: at most -4.2 for the first, at most -4.2 for the second.

G42U U56A A120U A142C and U45C C57G G59U A66U G94A cannot be ordered by “polymerase ribozyme fitness (log ratio)” value: at most -4.2 for the first, at most -4.2 for the second.

Compared with U45A C51U C54U G92U, U45G A115G is higher in “polymerase ribozyme fitness (log ratio)” value: -3.95 for the first, -1.98 for the second.

Going from U44A C85U to U44A U53A C79G C85G A119G U135G, the “polymerase ribozyme fitness (log ratio)” value falls from -4.17 to at most -4.2.

U45A A73U G83A G128U U151A and U44A G117U cannot be ordered by “polymerase ribozyme fitness (log ratio)” value: at most -4.2 for the first, at most -4.2 for the second.

U44A A91G U135C U144C and U44G G59C U78C G117U G143C cannot be ordered by “polymerase ribozyme fitness (log ratio)” value: at most -4.2 for the first, at most -4.2 for the second.

U45A G84U C108G and G42U A98U U102G A120U C132G U135A A147C cannot be ordered by “polymerase ribozyme fitness (log ratio)” value: at most -4.2 for the first, at most -4.2 for the second.

C43U U61A G86U A142G A147U and C43A U53G A64U C95U A110U A150C cannot be ordered by “polymerase ribozyme fitness (log ratio)” value: at most -4.2 for the first, at most -4.2 for the second.

U45A U55A U61A C63A U77A C131A A150G U151A and C43U C54U U56G U78C C85G C93G G133A G136U G140U cannot be ordered by “polymerase ribozyme fitness (log ratio)” value: at most -4.2 for the first, at most -4.2 for the second.

C43U C54G G92A U148G C149U and G42U G71U G88U G92C A97C A122G U134C cannot be ordered by “polymerase ribozyme fitness (log ratio)” value: at most -4.2 for the first, at most -4.2 for the second.

U44A U45A C51U C95A C103G and U45A G58A G59C A60G G133A cannot be ordered by “polymerase ribozyme fitness (log ratio)” value: at most -4.2 for the first, at most -4.2 for the second.

Compared with U45A U82G C129A U139A U145G, U45A G126U is higher in “polymerase ribozyme fitness (log ratio)” value: at most -4.2 for the first, -3.51 for the second.

Going from U45A G126A to C43U A73G C79A U134A, the “polymerase ribozyme fitness (log ratio)” value falls from -2.15 to at most -4.2.

U44A A52C C54A G92A G141C and U45A G59U G74U A121G G141A cannot be ordered by “polymerase ribozyme fitness (log ratio)” value: at most -4.2 for the first, at most -4.2 for the second.

Going from U45A C75U U90A C93U A119U G141C to U44A G46C C75G U102A A120U U130G, the “polymerase ribozyme fitness (log ratio)” value rises from at most -4.2 to -3.99.

U44G G92U and G42U G70C G83C G141C cannot be ordered by “polymerase ribozyme fitness (log ratio)” value: at most -4.2 for the first, at most -4.2 for the second.

U44G G65A A66C A91G and C43U A73G cannot be ordered by “polymerase ribozyme fitness (log ratio)” value: at most -4.2 for the first, at most -4.2 for the second.

Compared with G42U U44G A60G G71A G86A A106U U134G U135C, C43A C96A U101G A150U is higher in “polymerase ribozyme fitness (log ratio)” value: at most -4.2 for the first, -4.16 for the second.

C43U C85A C87U G94C and U44G G48A G84A cannot be ordered by “polymerase ribozyme fitness (log ratio)” value: at most -4.2 for the first, at most -4.2 for the second.

First: U44G U45G C54U C87A
Second: U44A U144C
The “polymerase ribozyme fitness (log ratio)” value of the first is lower: at most -4.2 for the first, -3.62 for the second.

U45A A64C C93A and G42U U45C C72U C85G A98G A106C G117U cannot be ordered by “polymerase ribozyme fitness (log ratio)” value: at most -4.2 for the first, at most -4.2 for the second.

Compared with U45A G92C U144A, C43U G67U is lower in “polymerase ribozyme fitness (log ratio)” value: -3.41 for the first, at most -4.2 for the second.

C43G G83C and C43G G50C C85A C96A C108U G124A cannot be ordered by “polymerase ribozyme fitness (log ratio)” value: at most -4.2 for the first, at most -4.2 for the second.

First: U45A C85A C87G C114A A137C
Second: U45G C57A C93A G124A
The “polymerase ribozyme fitness (log ratio)” value of the first is lower: at most -4.2 for the first, -3.64 for the second.

C43U A52C C57U G83A A89C and C43U C125G U151G cannot be ordered by “polymerase ribozyme fitness (log ratio)” value: at most -4.2 for the first, at most -4.2 for the second.

U45A U56G A73G C96G C99G A107U G140A and U44A C57A U82C C95A cannot be ordered by “polymerase ribozyme fitness (log ratio)” value: at most -4.2 for the first, at most -4.2 for the second.

First: U45G C51U C95A C125U
Second: U44A U53A G86U C132U U135G
The “polymerase ribozyme fitness (log ratio)” value of the first is higher: -3.64 for the first, at most -4.2 for the second.

Compared with G42C U44G A106G, U45A G92A U127C G128A U130G is higher in “polymerase ribozyme fitness (log ratio)” value: at most -4.2 for the first, -4.06 for the second.

Going from C43U C57U to U45A G65C A73G G84A A142G, the “polymerase ribozyme fitness (log ratio)” value falls from -3.79 to at most -4.2.

U44C G83C U148A and U44A C79G C85A U111G G133C cannot be ordered by “polymerase ribozyme fitness (log ratio)” value: at most -4.2 for the first, at most -4.2 for the second.

U45A G88C A113C U134A and U44A U53G G67A U78A G81C G88A G92C A138U cannot be ordered by “polymerase ribozyme fitness (log ratio)” value: at most -4.2 for the first, at most -4.2 for the second.

G42U G84U U134C U139G and U45G C76A C129G U134G cannot be ordered by “polymerase ribozyme fitness (log ratio)” value: at most -4.2 for the first, at most -4.2 for the second.

First: U45G A52U
Second: C43U G50U U109A A150U
The “polymerase ribozyme fitness (log ratio)” value of the first is higher: -3.15 for the first, at most -4.2 for the second.

First: U45A C57A C96U G124A
Second: U44C G59A A91U
The “polymerase ribozyme fitness (log ratio)” value of the first is higher: -3.11 for the first, -4 for the second.

C43U G81C G88A G133C and G42C U56G U144A cannot be ordered by “polymerase ribozyme fitness (log ratio)” value: at most -4.2 for the first, at most -4.2 for the second.

U44G G46C A60C U61A C95U and U44G G58C G59C U61A G94C cannot be ordered by “polymerase ribozyme fitness (log ratio)” value: at most -4.2 for the first, at most -4.2 for the second.

Source: the RNAGym collection of RNA variant scans (doi:10.1073/pnas.2313332121)
